Reference: publication PMC7156504, “An in vivo platform to select and evolve aggregation-resistant proteins” (Nature Communications, 2020)

Target: T1, biotinylated nerve growth factor (NGF) (Homo sapiens, UniProt P01138, biotin (biotinylated in-house, sites not stated))
T1 construct: nerve growth factor (NGF), human; R&D Systems 256-GF; also called human nerve growth factor; source: bought: R&D Systems (256-GF), biotinylated in-house
Assay: AlphaScreen or HTRF; epitope competition assay: biotinylated NGF (detected by streptavidin Europium cryptate) and DyLight650-labelled IgGWFL with increasing concentrations of test IgG; relative affinity
Details: both partners purified

T1 sequence (P01138 122-241): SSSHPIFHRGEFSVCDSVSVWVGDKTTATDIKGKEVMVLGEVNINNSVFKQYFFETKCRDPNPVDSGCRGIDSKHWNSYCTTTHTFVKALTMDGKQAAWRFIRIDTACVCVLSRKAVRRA

| binding result | Binder |
| --- | --- |
| binds | MEDI578 (the parent antibody prior to affinity maturation into MEDI1912) (antibody, V domains shown, VH of MEDI578; VL of MEDI578; The entry is printed as 5J7Z in the methods; also called IgG_(MEDI578)) VH: QVQLVQSGAEVKKPGSSVKVSCKASGGTFSTYGISWVRQAPGQGLEWMGGIIPIFDTGNSAQSFQGRVTITADESTSTAYMELSSLRSEDTAVYYCARSSRIYDLNPSLTAYYDMDVWGQGTMVTVSS VL: QSVLTQPPSVSAAPGQKVTISCSGSSSNIGNNYVSWYQQLPGTAPKLLIYDNNKRPSGIPDRFSGSKSGTSATLGITGLQTGDEADYYCGTWDSSLSAWVFGGGTKLTVL |
| binds | evolved scFvWFL variant 128 reformatted as IgG1 (antibody, V domains shown, retains W35, F36 and L64; human IgG1 heavy chain constant region of the TM-YTE IgG1 expression vector; human light chain constant region of the expression vector; IgG1, TM-YTE backbone; retains the original WFL residues (W35, F36 and L64); source: HEK293/EBNA, co-transfected, purified from the culture medium (Protein A)) VH: QVQLVQSGAEVKKPGSSVKVSCKASGGTFWFGAFTWVRQAPGQGLEWMGGIIPIFGLTNLAQNFQGRVTITADESTSTVYMELSSLRSEDTAVYYCARSSRIYDLNPSLTADYDMDVWGQGTMVTVSS VL: QSVLTQPPSVSAAPGQEVTISCSGSSSDIGNNYVSWYQQPPGAAPKLLIYDNNKRPSGIPDRFSGSKSGTSATLGITGLQTGDEADYYCGTWDSSLSAWVFGGGTKLTVL |
| binds | evolved scFvWFL variant 59 reformatted as IgG1 (antibody, V domains shown, human IgG1 heavy chain constant region of the TM-YTE IgG1 expression vector; human light chain constant region of the expression vector; IgG1, TM-YTE backbone; selected by the TPBLA from an error-prone PCR library of scFvWFL; source: HEK293/EBNA, co-transfected, purified from the culture medium (Protein A)) VH: QVQLVQSGAEVKKPGSSVKVSCKASGGTFRFGAFTWARQAPGQGLEWMGGIIPIFGLTNLAQNFQGRATITADESTSTVYMELSSLRSEDTAVYYCARSSRIYDLNPSLTAYYDMDVWGQGTMVTVSS VL: QSVLTQPPSVSAAPGQKVTISCSGSSSDIGNNYVSWYQQLPGTAPKLLTYDNNKRPSGIPGRFSGSKSGTSATLGITGLQTGDEADYYCGTWDSSLSAWVFGGGTKLTVL |
| binds | evolved scFvWFL variant 176 reformatted as IgG1 (antibody, V domains shown, human IgG1 heavy chain constant region of the TM-YTE IgG1 expression vector; human light chain constant region of the expression vector; IgG1, TM-YTE backbone; selected by the TPBLA from an error-prone PCR library of scFvWFL; source: HEK293/EBNA, co-transfected, purified from the culture medium (Protein A)) VH: QVQLVRSGAEVKKPGSSVKVSCKASGGTFWFGAFTWVRQAPGQGLEWMGGIIPIFGLTNLAQNFQGRVTITADESTSTVYMELSSLRSEDTAVYYCARSSRIYDLNPSLTAYYDMDVWGQGTMVTVSS VL: QSVLTQPPSVSAAPGQKVTISCSGSSSDIGNNYVSWYQQLPGTAPKLLIYDNNKRPSGIPDRFSGSKSGTSATLGITGLQTGDEADYYCGTWDSSLSAWVFGGGTKLTVL |
| binds | evolved scFvWFL variant 72 reformatted as IgG1 (antibody, V domains shown, human IgG1 heavy chain constant region of the TM-YTE IgG1 expression vector; human light chain constant region of the expression vector; IgG1, TM-YTE backbone; selected by the TPBLA from an error-prone PCR library of scFvWFL; source: HEK293/EBNA, co-transfected, purified from the culture medium (Protein A)) VH: QVQLVQSGAEVKKPGSSVKVSCKASGGTSWFGAFTWVRQAPGQGLEWMGGTIPIFGLTNLAQNFQGRVTITADESTSTVYMELSSLRSDDTAVYYCARSSRIYDLNPSLTAYYDMGVWGQGTMVTVSS VL: QSVLTQPPSVSAAPGQKVTISCSGSSSDIGDNYVSWYQQLPGTAPKLLIYDNNKRPSGIPDRFSGSKSGTSATLGITGLQTGDEADYYCGTWDSSLSAWVFGGGTKLTVL |
| binds | DyLight650-labelled IgGWFL (antibody, V domains shown, as the VH of m1; human IgG1 heavy chain constant region of the TM-YTE IgG1 expression vector; as the VL of m1; human light chain constant region of the expression vector; same protein as m1; also called labelled MEDI1912; source: HEK293/EBNA, co-transfected, purified from the culture medium (Protein A); labelled with DyLight650) VH: QVQLVQSGAEVKKPGSSVKVSCKASGGTFWFGAFTWVRQAPGQGLEWMGGIIPIFGLTNLAQNFQGRVTITADESTSTVYMELSSLRSEDTAVYYCARSSRIYDLNPSLTAYYDMDVWGQGTMVTVSS VL: QSVLTQPPSVSAAPGQKVTISCSGSSSDIGNNYVSWYQQLPGTAPKLLIYDNNKRPSGIPDRFSGSKSGTSATLGITGLQTGDEADYYCGTWDSSLSAWVFGGGTKLTVL |
| binds | evolved scFvWFL variant 16 reformatted as IgG1 (antibody, V domains shown, human IgG1 heavy chain constant region of the TM-YTE IgG1 expression vector; human light chain constant region of the expression vector; IgG1, TM-YTE backbone; selected by the TPBLA from an error-prone PCR library of scFvWFL; source: HEK293/EBNA, co-transfected, purified from the culture medium (Protein A)) VH: QVQLVQSGAEVKKPGSSVKVSCKASGGTFWSGAFTWVRQAPGQGLEWMGGIIPISGLTNLAQNFQGRVTITADESTSTAYMELSSLRSEDTAVYYCARSSRIYDLNPSLTAYYDMDVWGQGTMVTVSS VL: QSVLTQPPSVSAAPGQKVTISCSGSSSDIGNNYVSWYQQLPGTAPKLLIYDNNKRPSGIPDRFSGSKSGTSATLGITGLQTGDEADYYCGTWDSSLSAWVIGGGTKLTVL |
| binds | evolved scFvWFL variant 37 reformatted as IgG1 (antibody, V domains shown, retains W35, F36 and L64; human IgG1 heavy chain constant region of the TM-YTE IgG1 expression vector; human light chain constant region of the expression vector; IgG1, TM-YTE backbone; retains the original WFL residues (W35, F36 and L64); source: HEK293/EBNA, co-transfected, purified from the culture medium (Protein A)) VH: QVQLVPSGAEVKKPGSSVKVSCKASGGTFWFGAFTWVRQAPGQGLEWMGGIIPTFGLTNLAQNFQGRVTITADESTSTVYMELSSLRSEDTAVYYCARSSRIYDLNPSLTAYYDMDVWGQGTMVTVSS VL: QSVLTQPPSVSAAPGQKVTISCSGPSSDIGNNYVSWYQQLPGTAPKLLIYDNNKRPSGIPDRFSGSKSGTSATLGITGLQTGDEADYYCGTWDSSLSAWVFGGGTKLTVL |
| binds | evolved scFvWFL variant 11 reformatted as IgG1 (antibody, V domains shown, human IgG1 heavy chain constant region of the TM-YTE IgG1 expression vector; human light chain constant region of the expression vector; IgG1, TM-YTE backbone; selected by the TPBLA from an error-prone PCR library of scFvWFL; source: HEK293/EBNA, co-transfected, purified from the culture medium (Protein A)) VH: QVQLVRSGAEVKKPGSSVKVSCKASGGTFWFGAFTWVRQAPGQGLEWMGGIIPIFGLTNLAQNFQGRVTITADESTSTVYMELSSLRSEDTAVYYCARSSRIYDLNPSLAAYYDMDVWGQGTMVTVSS VL: QSVLTQPPSVSAAPGQKVTIPCSGSSSDIGNNYVSWYQQLPGTAPKLLIYDNNKRPSGIPDRFSGSKSGTSATLGVTGLQTGDEADYYCGTWDSSLSAWVFGGGTKLTVL |
| binds | evolved scFvWFL variant 130 reformatted as IgG1 (antibody, V domains shown, human IgG1 heavy chain constant region of the TM-YTE IgG1 expression vector; human light chain constant region of the expression vector; IgG1, TM-YTE backbone; selected by the TPBLA from an error-prone PCR library of scFvWFL; source: HEK293/EBNA, co-transfected, purified from the culture medium (Protein A)) VH: QVQLVQSGAEVKKPGSSVKVSCKASGGAFWFGAFTWVRQAPGQGLEWMGGITPIFGHTNLAQNFQGRVTITADESTSTVYMELSSLRSEDTAVYYCARSSRIYDLNPSLTAYYDMDVWGQGTMVTVSS VL: QSVLTQPPSVSAAPGQKVTISCSGSSSDIGNNYVSWYQQLPGTAPKLLIYDNNKRPSGIPDRFSGSKSGTSATLGITGLQTGDEADYYCGTWDSSLSAWVFGGGTKLTVL |
| binds | evolved scFvWFL variant 139 reformatted as IgG1 (antibody, V domains shown, human IgG1 heavy chain constant region of the TM-YTE IgG1 expression vector; human light chain constant region of the expression vector; IgG1, TM-YTE backbone; the best performing variant of the screen; source: HEK293/EBNA, co-transfected, purified from the culture medium (Protein A)) VH: QVQLVQSGAEVKKPGSSVKVSCKAGGGTFWSGAFTWVRQAPGQGLEWMGGIIPIFGLTNLAQNFQGRVTITADESTSTVYMELSSLRSEDTAVYYCARSSRTYDLNPSLTAYYDMDVWGQGTMVTVSS VL: QSVLTQPPSVSAAPGQKVTISCSGSSSDIGNNYVSWYQQLPGTAPKLLIYDNNKRPSGIPDRFSGSKSGTTATLGITGLQTGDEADYYCGTWDSSLSAWVFGGGTKLTVL |
| binds | evolved scFvWFL variant 126 reformatted as IgG1 (antibody, V domains shown, human IgG1 heavy chain constant region of the TM-YTE IgG1 expression vector; human light chain constant region of the expression vector; IgG1, TM-YTE backbone; selected by the TPBLA from an error-prone PCR library of scFvWFL; source: HEK293/EBNA, co-transfected, purified from the culture medium (Protein A)) VH: QVQLVQSGAEVKKPGSSVKVSCKASGGTFWFGAFTWVRQAPGQGLEWMGGFIPISGLTNLAQNFQGRVTITADESTSTVYMELSSLRSEDTAVYYCARSSRIYDLNPSLTAYYDMDVWGQGTMVTVSS VL: QSVLTQPPSVSAAPGQKVTISCSGSSSDIGNNYVSWYQQLPGTAPKLLIYDNNKRPSGIPDRFSGSKSGTSATLGITGLQTGDEADYYCGTWDSSLSAWVFGGGTKLTVL |

Target: T1, biotinylated nerve growth factor (NGF)
Assay: not given
Details: not given

| binding result | Binder |
| --- | --- |
| binds | IgG STT (scFv STT) (antibody, V domains shown) VH: QVQLVQSGAEVKKPGSSVKVSCKASGGTFSTGAFTWVRQAPGQGLEWMGGIIPIFGLTNLAQNFQGRVTITADESTSTVYMELSSLRSEDTAVYYCARSSRIYDLNPSLTAYYDMDVWGQGTMVTVSS VL: QSVLTQPPSVSAAPGQKVTISCSGSSSDIGNNYVSWYQQLPGTAPKLLIYDNNKRPSGIPDRFSGSKSGTSATLGITGLQTGDEADYYCGTWDSSLSAWVFGGGTKLTVL |
